# Reference: patent US20040175758
# B1: Recombinant FLAG-tagged human GPBP (expressed in yeast, FLAG-affinity purified) (protein)
# chain: MSDNQSWNSSGSEEDPETESGPPVERCGVLSKWTNYIHGWQDRWVVLKNNALSYYKSEDETEYGCRGSICLSKAVITPHDFDECRFDISVNDSVWYLRAQDPDHRQQWIDAIEQHKTESGYGSESSLRRHGSMVSLVSGASGYSATSTSSFKKGHSLREKLAEMETFRDILCRQVDTLQKYFDACADAVSKDELQRDKVVEDDEDDFPTTRSDGDFLHSTNGNKEKLFPHVTPKGINGIDFKGEAITFKATTAGILATLSHCIELMVKREDSWQKRLDKETEKKRRTEEAYKNAMTELKKKSHFGGPDYEEGPNSLINEEEFFDAVEAALDRQDKIEEQSQSEKVRLHWPTSLPSGDAFSSVGTHRFVQKPYSRSSSMSSIDLVSASDDVHRFSSQVEEMVQNHMTYSLQDVGGDANWQLVVEEGEMKVYRREVEENGIVLDPLKATHAVKGVTGHEVCNYFWNVDVRNDWETTIENFHVVETLADNAIIIYQTHKRVWPASQRDVLYLSVIRKIPALTENDPETWIVCNFSVDHDSAPLNNRCVRAKINVAMICQTLVSPPEGNQEISRDNILCKITYVANVNPGGWAPASVLRAVAKREYPKFLKRFTSYVQEKTAGKPILF
# Experiments:
# [1] = molecular target: T1, Q4, synthetic peptide Ac-EKTAGKPILF-OH
# T1 chain: EKTAGKPILF
# [2] = molecular target: Bovine recombinant PrP (Prionics), P10279
# Sequence of Bovine recombinant PrP (Prionics), P10279 (P10279 25-242): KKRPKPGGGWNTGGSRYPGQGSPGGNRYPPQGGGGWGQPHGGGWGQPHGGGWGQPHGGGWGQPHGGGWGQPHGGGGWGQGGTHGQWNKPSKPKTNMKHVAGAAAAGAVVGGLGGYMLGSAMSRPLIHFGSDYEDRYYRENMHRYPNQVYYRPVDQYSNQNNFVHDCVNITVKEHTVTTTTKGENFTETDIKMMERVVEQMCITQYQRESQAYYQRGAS
protein,measurement,setting,value
B1,GPBP autophosphorylation in vitro,[1],inhibited GPBP autophosphorylation in a more limited manner
same,"in vitro phosphorylation with [γ^32P]-ATP, autoradiography",[2],transferred phosphates to PrP
